Measured values from PMC9907325.
pKd: −log10 of the molar value.

Tests used:
[1] = biological target: Fc-tagged human IL-2Rαβγ (Acro, ILG-H5257) (human) (UniProt P01589)
[2] = biological target: HCW9302 (IL-2/TF/IL-2 fusion protein) (human) (UniProt P13726); experiment: SEC; HPLC-SEC profile of purified native HCW9302
[3] = biological target: Fc-tagged human IL-2Rα (Acro, ILA-H5251) (human) (UniProt P01589); experiment: SPR; Biacore 8K; Fc-tagged receptors captured by immobilised anti-human IgG (Fc) antibody on CM5 chips; 2-fold dilutions of HCW9302 or IL-2 injected 120 s, dissociation 300 s; regeneration 3 M magnesium chloride; 1:1 fitting model; KD apparent
[4] = biological target: Fc-tagged human IL-2Rαβγ (Acro, ILG-H5257) (human) (UniProt P01589); experiment: as above
[5] = biological target: Fc-tagged human IL-2Rβγ (Acro, ILG-H5254) (human) (UniProt P14784); experiment: as above
[6] = biological target: His-tagged cynomolgus IL-2Rα (Sino, 90265-C08H) (cynomolgus monkey); experiment: SPR; His-tagged human, mouse or cynomolgus IL-2Rα chemically immobilised by amine coupling on CM5 chips; 2-fold dilutions of HCW9302 or IL-2 injected 90 s, dissociation 210 s; regeneration 3 M magnesium chloride; 1:1 fitting model; KD apparent
[7] = biological target: His-tagged human IL-2Rα (Acro, ILA-H5251) (human) (UniProt P01589); experiment: as above
[8] = biological target: His-tagged mouse IL-2Rα (Acro, ILG-M52H9) (mouse) (UniProt P01590); experiment: as above
Sequence of UniProt P01590 (P01590 22-236): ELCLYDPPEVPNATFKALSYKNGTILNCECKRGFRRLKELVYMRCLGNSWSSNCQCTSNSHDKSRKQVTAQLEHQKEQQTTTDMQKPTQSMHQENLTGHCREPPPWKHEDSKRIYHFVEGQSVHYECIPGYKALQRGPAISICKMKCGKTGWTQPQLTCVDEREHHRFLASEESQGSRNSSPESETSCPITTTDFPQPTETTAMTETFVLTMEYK

Sequence of UniProt P14784 (P14784 27-240, chain 1 of 2): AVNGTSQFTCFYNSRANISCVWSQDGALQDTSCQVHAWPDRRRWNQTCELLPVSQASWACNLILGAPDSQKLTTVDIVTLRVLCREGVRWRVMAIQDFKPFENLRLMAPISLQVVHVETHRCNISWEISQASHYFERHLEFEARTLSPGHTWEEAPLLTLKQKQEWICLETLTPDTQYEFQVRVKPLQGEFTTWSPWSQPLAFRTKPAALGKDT
Sequence of UniProt P14784 (P31785 23-262, chain 2 of 2, further chain): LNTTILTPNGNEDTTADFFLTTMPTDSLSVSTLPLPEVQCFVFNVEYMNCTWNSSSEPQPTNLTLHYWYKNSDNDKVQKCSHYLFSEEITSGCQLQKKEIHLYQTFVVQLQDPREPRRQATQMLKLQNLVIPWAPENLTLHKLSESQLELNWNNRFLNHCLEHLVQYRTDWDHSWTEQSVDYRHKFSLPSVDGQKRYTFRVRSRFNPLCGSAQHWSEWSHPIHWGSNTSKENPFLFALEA

phosphorylation of STAT5 in human Treg cells (PBMC, 30 min, 0.15-15000 pM), half-maximal stimulation (EC50) [1] | stoichiometry N [2] | pKd [3] | koff [3] | pKd [4] | koff [4] | kon [4] | pKd [5] | koff [5] | kon [5] | pKd [6] | koff [6] | kon [6] | pKd [7] | koff [7] | kon [7] | pKd [8] | koff [8] | kon [8] | Substance
6.12 pM | 2 | 11.70 | 0.107 s⁻¹ | 11.70 | 0.000771 s⁻¹ | 3.83e+08 M⁻¹ s⁻¹ | 9.93 | 0.00017 s⁻¹ | 1.45e+06 M⁻¹ s⁻¹ | 11.50 | 0.000457 s⁻¹ | 1.43e+08 M⁻¹ s⁻¹ | 10.88 | 0.00289 s⁻¹ | 2.18e+08 M⁻¹ s⁻¹ | 9.53 | 0.000918 s⁻¹ | 3.1e+06 M⁻¹ s⁻¹ | HCW9302 (IL-2/TF/IL-2 fusion protein) (from UniProt P13726 33-251) (ligand)
43.1 pM |  |  |  |  |  |  |  |  |  |  |  |  |  |  |  |  |  |  | aldesleukin (Proleukin), clinical grade rhIL-2 (from UniProt P60568 21-153) (ligand)
 |  |  |  |  |  |  |  |  |  | 7.79 | 0.212 s⁻¹ | 1.3e+08 M⁻¹ s⁻¹ |  |  |  |  |  |  | human IL-2 (Acro, S13-H5113) (from UniProt P60568 21-153) (ligand)
